These results are taken from publication PMC11009657 (Proceedings of the National Academy of Sciences of the …, 2024).

A word on the stoichiometry N: it is the number of molecules, sites or subunits per partner or assembly.

For series [1], the target named is tau extracted from Alzheimer brain samples (human (endogenous in Alzheimer brain)). Nature of the series: sarkosyl extraction and Western blot. On the technique in general: In western blotting, separated proteins are transferred to a membrane and probed.
Series [2] concerns the molecule itself. As to the kind of experiment: ThT fluorescence + TEM.

Sequence of tau extracted from Alzheimer brain samples (natural protein) (P10636 2-758): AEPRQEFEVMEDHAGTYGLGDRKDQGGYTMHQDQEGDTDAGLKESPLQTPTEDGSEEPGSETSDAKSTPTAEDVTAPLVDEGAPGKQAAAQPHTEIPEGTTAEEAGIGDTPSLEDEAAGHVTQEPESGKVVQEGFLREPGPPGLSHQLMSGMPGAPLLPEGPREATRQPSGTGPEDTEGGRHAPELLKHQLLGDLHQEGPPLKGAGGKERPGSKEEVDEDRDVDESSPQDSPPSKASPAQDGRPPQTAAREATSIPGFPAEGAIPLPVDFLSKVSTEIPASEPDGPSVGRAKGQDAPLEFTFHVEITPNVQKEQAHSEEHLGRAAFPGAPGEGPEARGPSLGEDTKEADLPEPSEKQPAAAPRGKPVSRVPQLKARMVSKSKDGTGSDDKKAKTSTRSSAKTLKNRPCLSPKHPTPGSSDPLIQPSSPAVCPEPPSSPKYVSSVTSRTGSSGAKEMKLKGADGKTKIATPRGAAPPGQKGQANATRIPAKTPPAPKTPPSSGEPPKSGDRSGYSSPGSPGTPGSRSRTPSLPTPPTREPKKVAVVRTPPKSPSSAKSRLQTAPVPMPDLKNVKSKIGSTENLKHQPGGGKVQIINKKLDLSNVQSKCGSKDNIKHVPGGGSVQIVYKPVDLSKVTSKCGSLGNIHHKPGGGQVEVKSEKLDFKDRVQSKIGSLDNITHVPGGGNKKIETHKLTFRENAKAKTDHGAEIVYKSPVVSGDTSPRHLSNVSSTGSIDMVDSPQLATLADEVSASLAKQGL

The molecule “tau extracted from Alzheimer brain samples (natural protein)” gave a stoichiometry N in series [1] of 6.

On to DNIKHVPGGGSVQIVYKPV [jR2R3], for which, in series [2], the binding result was “binds”.
